In general, stoichiometry N refers to the number of molecules, sites or subunits per partner or assembly.

Consider one molecule from doi:10.1101/2021.01.11.425814 (bioRxiv, 2021).

The assay deals with p53 transactivation domain (TAD) (13-61) (human, UniProt P04637 13-61). The assay is described as follows: ITC. A general note: In ITC the heat of successive injections is recorded.
Chain of p53 transactivation domain (TAD) (13-61) (P04637 13-61): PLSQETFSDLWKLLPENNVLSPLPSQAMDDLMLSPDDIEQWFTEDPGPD

B1: FOXO4 forkhead domain (FHD) (95-195) (domain or fragment)
chain: GSRRNAWGNQSYAELISQAIESAPEKRLTLAQIYEWMVRTVPYFKDKGDSNSSAGWKNSIRHNLSLHSKFIKVHNEATGKSSWWMLNPEGGKSGKAPRRRA
With B1, the dH turned out to be 12.3 kcal/mol and the “stoichiometry N” value is 1.04.
